# Assay results: paper PMC1368978, “Crystal structure of a DNA polymerase sliding clamp from a Gram-positive bacterium” (BMC Structural Biology, 2006)
# B1: β subunit of the DNA polymerase III holoenzyme of Streptococcus pyogenes (natural protein)
# chain: MIQFSINRTLFIHALNTTKRAISTKNAIPILSSIKIEVTSTGVTLTGSNGQISIENTIPVSNENAGLLITSPGAILLEASFFINIISSLPDISINVKEIEQHQVVLTSGKSEITLKGKDVDQYPRLQEVSTENPLILKTKLLKSIIAETAFAASLQESRPILTGVHIVLSNHKDFKAVATDSHRMSQRLITLDNTSADLMVVLPSKSLREFSAVFTDDIETVEVFFSPSQILFRSEHISFYTRLLEGNYPDTDRLLMTEFETEVVFNTQSLRHAMERAFLISNATQNGTVKLEITQNHISAHVNSPEVGKVNEDLDIVSQSGSDLTISFNPTYLIESLKAIKSETVKIHFLSPVRPFTLTPGDEEESFIQLITPVRTN
# notes: β subunit (sliding clamp) of DNA polymerase III, Streptococcus pyogenes; residues up to Thr 377 are named in the model; A selenomethionine-derivatized form was also made and crystallized for phasing (MAD); also called S. pyogenes β subunit; S. pyogenes β clamp; source: E. coli BLR DE3 (plasmid pETSpdnaN), purified (ammonium sulfate cut, Fast Flow Q, EAH-Sepharose 4B, Mono Q)
# Biological target: the molecule itself
# Assay: crystal structure; hanging drop, 20 mg/mL protein in Buffer A + 100 mM NaCl; 30% PEG 2000 MME, 100 mM sodium acetate pH 4.5, 200 mM ammonium sulfate, 20°C; space group P2(1), one dimer in the asymmetric unit; refined to 2.1 Å
protein,measurement,value
B1,stoichiometry N,2
